PMC10410066

Molecular target: inhibitor of nuclear factor kappa B kinase subunit beta (IKBKB), FLAG-tagged (UniProt O14920)
Assay: TR-FRET protein-protein interaction assay (2B7-Tb/anti-FLAG-D2)
Details: peak of the lysate titration curve (mutant peak at about 3 ug/well, WT peak at about 5 ug/well); HEK293T lysates; parent: est. 0.30; read off a plot

**Q.** How did the response (Fluorescence Ratio (665/615)) turn out when “N571 Q55 HTT (N-terminal huntingtin fragment 1-571 with 55 glutamines) S13A; S16A” was run?
**A.** Its response (Fluorescence Ratio (665/615)) is 0.26.
